According to a protein production outcome set (Wang et al. 2014):

Test: label from the status in PepcDB records

Sequence	protein production
MSSTALEMASRFVNRSPFNRWLGMSVLEAGEQGIVLGIKWREELISSPEIRSTHGGILATLVDAAGDYAVALKTGHPVPTMDMHVDYHRVATPGDLRAEGQVIHFGKRFATAHARVLDMDGNLVASGRALYLIRAPQPGAAQGAA	failed
MSSTKRQKNRVLVKLKKRKVRKDKIEKWAELALSALGLNNVELSVYITDDQEIRELNKTYRKKDKPTDVLSFPMGEEFGGYKILGDVVISQDTAERQARELGHSLEEEVKRLIVHGIVHLLGYDHEKGGEEEKKFRELENYVLSKLSKAL	not failed
MSSTLRFHVLGRGAALPRAVAPYFVLRTDNWDDFGHRVQFHLILIVSGAPEKRIGSLKVLQRTSDKGEAMMVATDTELPSKFVELDDTFVSLGQDDDFYKKLHEALGDRAGEVLDALRDIAWRPAFASDFEPTPAFRNAMMRENGAQRARRFGRAWALGEQITERPAFDYVGTIEGADIKVEGEFDFSATDPVPGRIVGLIGRNAVGKTRYLASLGSDLAQISRRSAEALEAREARFPGGRPLFTRIIAISYSAFDRFKRPPMDSSSSYVYCGIRNDRGGLSRSALIDRYRLNQVRIRERGEQRSWMRHMKTILGDQGAQLTASLEEEIRSDSTDDSALSSLSSGQSILAHFVTALLAWIQPNSLVLFDEPETHLHPNAVASLFLVLSQVLQEFDSYAVIATHSPVVIQEIPAKRVLVFRREGNVTIAEPLLLESFGESVTELTRHVFETGEVESLYKRTLRELAAEDTVEDVLARFELGLSLSAQAYLLAQYSKKAGGRTLEHHHHHH	failed
MSSTLWIFYDQYVQRATVDGLPTFIGPGEQATLRISSLKNDIQVRDQDGQCLIMTDGEELHTLPSGESCELTIDGKPYSFLYVGEAPSEKKYYMGHANLVTISNEPSANIVLPSDIEMDCTLLCERKEWTLYPKEGTQAPYVNGRKVSIPTQIVDGDEMLFGRVLLKIIEGNILVVESNETYETTLTQVETPTSLMQQQYPIYRRTPRMIYEQPTDKVEFSMPSEEIDDVGRPLWMILLPPVAIIVIMVTISIVFQRTWMLFMSVPIMTVMAVVATTMFFREKKKRKQKEEKRKRVYSRYLEVKRDELQALADAQRHALMYHFPTFEQMKNKARRVSSRIWERTIDNNDFLDIRIGRSSVPASFELNQPSDELSNRDRDELMDDFDRFREKYSHLENAPLRLSVARGALGYVGKPSIVEREVSQIIGQLAFAHSYHDLRFVAILNEEQRKKWEWMNWLPHFQLPGTEAKGFIYDEKACDHILNPLYHMLRERDLAQKETVEKKREKKRFLPHIVFFVANRSLIAEHGIMEYLEGKDKELGFTVIFLTDVAQNLNEHVHTIVKAVNRNEGEIVLLRNISIHKRFQFDAYDPASNENYARMLPSLHHQQGMTRSIPDMVSFMEMFPGVIQAKDLEIKKRWQTNDSTKSLAVPIGLKAKDELLELDAHEKMHGPHGLLAGTTGSGKSEFLQTYILSLAVNYHPHEVAFLLIDYKGGGMAQPFKGMPHLLGVITNIAESENFSARALASIRSELKKRQRLFDEHTVNHINDYTELYKAGTAKEPMPHLFIISDEFAELKNEEPEFIKELVSAARIGRSLGVHLLLATQKPSGVVDGQIWSNSRFRIALKVQNATDSREILKNEDAAYIKETGRGYLQIGSNEQYDLFQSAWSGAQYLRSAHDGEEEIAYVTDLGLKLVSRAEIKEDREQESITEIEAVVNEIAATTDELAIVPAKSPWLDPLEERIFYEATSSEDEAQAFPFALADDPENQRQFPICYDWGKSGNLMIFGTSGYGKSTTLLTLLLAFAEKRSPEQANYYVLDFGNGALLPLRQLRHTGDYIKMDEGRKLEKLIDYIEKEMERRSELFMEREVSNISVYNEVSDEPLPSIFIVIDNYDILPEEFSDQAPAFTRFARDGQSRGIYVFATVTARNAVKPVLLNSMNMKICHYMIEKTDLTSLLGRVPFAIESVPGRMIVAKDKNWLAHTYLPAKGENDFEVIENVKARIQTINDRYEDSKLPKSMAMLPKTLTLTGLRERIKEEPRLGIPLGLNEETVQPVYIDQDAGAHMVIAGEPKRGKSNVLKVILSFYFETDVEKIVLCDGVDRPLFDFSRKDKALYPTNAEELQHAVEELKQVMEERRMQYDEALQAGTEIPQFRPYLFVIDSFNEFKKMLGVSKEPAFAEMMQLYGHLEFRVIVAADHKDVSLGRGGVMGELKSARQLVLLVKKSAQSLVSFTHDRTEKLEDGFGYHVVNGRDTKIKIPEVVKEEAFIHS	failed
MSSTTNPSTHHTSTIGAIGAPSRRNTELALLVFAVLIPVFAYANVGLAINDEVPAGLLSYGFGLGLLAGVGHLVVRKFAPYADPLLLPLATLLNGLGLVAIWRLDQSDRLQSSKLFVEAAPRQLMYSALGVALFVAVLVFLRDHRVLQRYTYISMAGALVLLLLPLVPGLGHDNFGAKIWIKIPGLGTLQPGEFAKIVLAVFFAGYLMVKRDALALASRRFMGLYLPRGRDLGPIIVVWIISILILVFETDLGTSLLFFGMFVIMLYVATERTSWIVFGLLMSAVGAVGVASFESHVQQRVQAWLDPMHEYELSRQGVFGHTEQSMQALWAFGSGGTLGSGWGQGNSDLIGFAANSDFILATFGEELGLAGLMALLLLYALIVERGVRTALAARDPFGKLLAIGLSGAFALQVFVVAGGVMGLIPLTGMTMPFLAYGGSSVIANWALIGILLRISDTARRPAPAAPANPDAEMTQVVRP	failed
MSSVCFSVSREKLSGDIMLEKLNHYRQNLNFPLARPKNSSTQFRFDWVDNLRELQEVQRFRATQFSHQFGIHFDDGLDQDLYDFNCEHAVLREKWTGEIVAYTRLKLFQGHELSQSYSAQEFDIVDKLSYLPNVVEIGRTCVHPKFRSGKALSTLWLNLVPKVLWSMKAKYLMGCVSIHLDDNAARVYHTHQKIQRLSAEQTIDISSKCAYEPTHPQFSFPQDERIPKLFQMYLTMQSKLSKEAFYDEDFNCLDYFVFLEVNKIAKSFVMNKMVQR	failed
MSTARPRIITSKAPLLPQQTTPEQRYWRQYTSAQLVKEHNSVTHISFNPQHPHDFAVTSSTRVQIFSSRTRQVIKTFSRFKDVVYSASFRSDGKLLCAGDATGLVSVYDSYNPRTILLSINASTHPTHVTKFHTQDNKILATASDDRVTRLWDISNAYEPQLELTGATDYVRTLSFIPAAPHLVATGSYDGLIRLYDTRSSGSTPIYSLNHDQPVENVIAVSPTQIVSCGGNNFKVWDLTSNKKLYERGNFNKAVTCLDYVENFDSPMQSALIASSLDGHVKVFDPLDNFQVKFGWKFSGPVLSCAVSPSTAQGNRHLVAGLSSGLLAIRTKKKEKRSSDKENAPASFNKNAKSNNFQRMMRGSEYQGDQEHIIHNDKVRSQRRMRAFERNINQFKWSEALDNAFVPGMAKELTLTVLQELRKRGKVRVALYGRDESTLEPLLNWCLKGIEDVRSASIVADWVAVVLELYGNTLESSPVLQELMIDLKTKVRHEIHKSKEAQRIEGMLQLLTS	failed
MSTASGITMASMSTYAILGCGSVGHAVAEELVEEGKDVLILDADEGRVEALRDQDLNAQQADICETDVAQTVADRDVVLIMSPDVNANAEAVRNIRESGGEQFIVARADDPVSADDLTELGADVVINPSAVIADSALRALETGELEYKASQLGDVIDGTEERMAILIHRSPDPDSIASAAALRAIAASRDVDADIIYEGEIGHQENRAFVNLLGIELTSNEDVNLDEYDTFALVDVAKGGEPAVESVDIVIDHYEHEHELEHDAAFSDIRPNISATSTILTKYIQELDLNLDQSVATALLYGIRAETLDFKRDTTPADLTAAAYLYPFADHDTLEQVESPSMSPETLDVLAEAIRNREVQGSHLVSNAGFIRDRDALAQAAQHLLNLEGITTTAVFAIADDTIYLAARSKDIRMNIGKVLSDAFGGMGETAGHSTDASVEIPLGIFTGLDTSDDNRDTLLELTEEAVKRKLFEAMGVDSSSSESSNGN	not failed
MSTATLSGQSPSAQRRPMTREERRVIFASSLGTVFEWYDFYLYGSLAAIIAQHFFSGVNPTAAFIFALLAFAAGFAVRPFGALVFGRLGDLVGRKYTFLITIVIMGLSTFLVGVLPSYASIGIAAPAILIILRLLQGLALGGEYGGAATYVAEHAPHGRRGFYTSWIQTTATLGLFLSLLVILGVRTFMGEEAFKDWGWRIPFLISVVLLGISVWIRLQLNESPTFKRMKEEGKGSKAPIAESFGQWRNLKVVILALLGLTAGQAVVWYTGQFYALFFLTQSLKIDSNTANIMIAIALLVGTPFFVLFGALSDRIGRKPIIMAGCLIAALTYFPIFKGLTHYANPALEKAQATAPVTVIADPATCSFQFNPVGTASFTSSCDVVKSFMARNSVNYENQSAAAGSVAKVMIGNDEFASFDGKGLAPAEFKTKATELDKALTAAIRSHGYPAKADPAQTNYFMVVVLLTLLVIYVTMVYGPIAAMLVEMFPTRIRYTSMSLPYHIGNGWFGGFLPPVAFAVVAATGNIYDGLWYPIIIAVMTLVIGTLFVRETKDNDINA	not failed
MSTDILSAIGLTIIFVGLVLVIVGIVSGIIKSSKKERNENQREETKTEYGGVIFIGPIPIVFGSNKDMAKMALIIGVIMVVLIIAFVVLSYVV	failed
MSTDTCIKRPTRSELVDRFQKKIRAGEPIIGGGAGTGLSAKSEEAGDIDLIVIYNSGRYRMAGRGSLAGLLAYGNANQIVVDMAREVLPVVRHTPVLAGVNGTDPFMVMSTFLRELKEIGFAGVQNFPTVGLIDGLFRQNLEETGMSYAQEVEMIAEAHKLDLLTTPYVFSPEDAVAMAKAGADILVCHMGLTTGGAIGARSGKSMDDCVSLINECIEAARTIRDDIIILSHGGPIANPEDARFILDSCQGCHGFYGASSMERLPAEEAIRSQTLAFKAIRRQPA	not failed
MSTEQLLVLIAQNDIKDDIVDTLIELEFLSGFSLGNICGFSREHSHFNIKEQVEGYREFCKFEIMHPAAQQAALLTALALVCKHNPCRYWIMPIYQNGTLS	not failed
MSTIDFRPYGGFIFDMDGTLIDTMPAHLAAWQATADRFDFPFCQEWLHSLGGMPSFKIVAELNRHYGLSLDPQTVSKFKMETFAAMELQGDVIQCTGIVLEEYLGQKKIAVGTGSQRESAMRLLSHAGLIDRLDAVVTASDVENHKPCPDTFLLAADRLGIDAQNCLVFEDTELGKRAAHSAGMDCVMVEGNNLVFYPKR	not failed
MSTIIETGKSDFIKVNVSNSHNDAVAFEVKLAKDLTVAQLKTKLEILTGGCAGTMKVQVFKGDTCVSTMDNNDAQLGYYANSDGLRLHVVDSFATFSFDSAPVEKFELSKDQYEQRTDSVRNYLKINRMGKYNDEEMQQAEEKKRLQAEEIQKRAELCVLGGRCEVTVPGNPTRRGTIRYNGPLEGKSGHFIGVEYDEPLGKNNGSFGGKAYFTCAPNYGGFVSPLSVTVGDFPPEDFNMDDEL	failed
MSTILSLAPQNVWKHFYSLTQVPRPSGYLKKVQEFLLNFGKSVGVESFQDEAGNIIYRKPATPGMENRKKVILQAHMDMVPQKNNDTVHDFENDPIETYIDGDWVKAKGTTLGADDGMGVAAIMAIMEDKTLKHGPLEALITADEETGMFGAFGLKPGTVDGDILLNLDSEEEGELYIGCAGGEDLTAVLEYKEVETDPADIALKVTLKGLRGGHSGLEINEGRANANKLMARFMNQVITYDEACLVSWQGGNMRNAIPRECEVVITVPAEEEADVLEFVQECEALWNEEYHVHETPISFKAERVELPAMMVPDEIKDNLVDAIYACQNGVMRMIPTIPDTVETSSNLAIVSIGGGKAEIKILARSSRDSMKDYLNTALESCFSMAGMEVTRSGGYSGWEPNVDSPILKAMKESYKAQFGTEPAVKVIHAGLECGIIGAVVPGLDMISFGPTLRSPHSPDERCFIPSVGKFYDFVVATLENTPVKE	failed
